Among the data in article PMC4506568, “Targeting a Dynamic Protein–Protein Interaction: Fragment Screening against the Malaria Myosin A Motor Complex” (Chemmedchem, 2014) are Tm of the complex and Kd values, retold here.

By Kd is commonly meant the concentration at which binding is half-saturated.

The target of assay [1] is Plasmodium falciparum myosin A tail domain interacting protein, residues 61–204 (PfMTIPΔ60) (Plasmodium falciparum) (UniProt Q8I4W8). Put plainly: differential scanning fluorimetry; 5 μM PfMTIPΔ60 with 200 μM peptide in buffer A (20 mM HEPES pH 7.5, 50 mM NaCl, 1 mM TCEP), 10× SYPRO Orange, 15–80 °C. On the technique in general: DSF heats the sample and reads unfolding from a dye or from intrinsic fluorescence.

Assay [2] shares this target. Put plainly: ITC; 303 K; cell with about 200 μL of 20 μM PfMTIPΔ60 in buffer A (20 mM HEPES pH 7.5, 50 mM NaCl, 1 mM TCEP); peptide added in 2 μL injections from 250 μM; single site fit; n=1. (In ITC the heat of successive injections is recorded.)

In the case of “acetylated peptide control2 (acetyl-capped myoA tail from Leu 804) (from UniProt Q8IDR3 804-818)”, the Tm of the complex in assay [1] was 54.5 °C.
Take “acetylated peptide control3 (acetyl-capped myoA tail from Ser 803) (from UniProt Q8IDR3 803-818)”: the Tm of the complex in assay [1] worked out at 54.9 °C. The substance also came in with a Kd in assay [2] of 106 nM.
Regarding “acetylated peptide control1 (acetyl-capped myoA tail from Leu 805) (from UniProt Q8IDR3 805-818)”, the Tm of the complex in assay [1] came to 45.4 °C.
